Key:
[1] = substrate: CC(C)C[C@H](NC(=O)[C@H](C)NC(=O)[C@H](C)NC(=O)CCC(=O)O)C(=O)Nc1ccc([N+](=O)[O-])cc1; experiment: Kinetic parameters of hydrolysis of Suc-Ala-Ala-Leu-NH-Np (Lineweaver-Burk); type: biochemical; conditions: other: (S) range 0.4-4.0 mM, 10 mM CaCl2, pH 7.5, 25° C., enzyme 3.0×10^-10 M
Procedure: Neutral endopeptidase and neutral proteinase activities were assayed by the two-stage assay using the synthetic substrate Suc-Ala-Ala-Leu-NH-Np supplemented with Streptomyces griseus aminopeptidase, usually 6-7 μg/ml. Assays were performed in 0.1M NaCl-0.05M Tris.HCl, pH 7.5 at 25° C., unless otherwise stated, with or without 0.01M CaCl2. Assay volume was 1 ml or 2.5 ml when using a Varian Techtron spectrophotometer or 0.2 ml at 23° C. when performed with microplates (Munc Immuno Plate II F) using a Kinetic Microplate Reader (Molecular Devices Corp.). Activity was measured by following the increase in absorbance at 405 nm, due to the release of 4-nitroaniline, E405 =10,600M^-1 cm^-1 [14 ]. Molar concentration of thermolysin was estimated using A280 1% =17.65 [15] and molecular mass of 34,600 Da; molar concentration of bovine kidney neutral endopeptidase by protein determination and molecular mass of 90 kDa, deduced from SDS PAGE. Both endopeptidase 24.11 from bovine kidney and thermolysin cleave the Ala-Leu bond of the compound at a very fast rate (Table 3). The Leu residue of the substrate interacts with the major hydrophobic specificity sites of the enzymes (S'1), whereas the two Ala residues interact with additional subsites (S1, S2), thereby contributing to catalysis and/or binding. Even the 4-nitroaniline leaving group probably interacts with the enzyme at subsite S'2. Previously reported assays of endopeptidase 24.11 usually utilized a hydrophobic Phe residue, but Leu seems preferable in reaching higher kcat values. The rapid hydrolysis of the Leu residue is also preferable for the present two-stage assay utilizing Steptomyces aminopeptidase, since this enzyme very rapidly hydrolyzes the product of the endopeptidase attack, Leu-NH-Np. […]
(§1) Reactions were carried out in the presence of 10 mM CaCl2 at pH 7.5, 25° C. […] Values of kcat and Km were determined by Lineweaver-Burk plots.

[2] = substrate: CC(C)C[C@H](NC(=O)[C@H](C)NC(=O)[C@H](C)NC(=O)CCC(=O)O)C(=O)Nc1ccc([N+](=O)[O-])cc1; experiment: as above; type: biochemical, bovine; conditions: other: (S) range 0.04-4.0 mM, 10 mM CaCl2, pH 7.5, 25° C., enzyme 2.2×10^-9 M
Procedure: Neutral endopeptidase and neutral proteinase activities were assayed by the two-stage assay using the synthetic substrate Suc-Ala-Ala-Leu-NH-Np supplemented with Streptomyces griseus aminopeptidase, usually 6-7 μg/ml. Assays were performed in 0.1M NaCl-0.05M Tris.HCl, pH 7.5 at 25° C., unless otherwise stated, with or without 0.01M CaCl2. Assay volume was 1 ml or 2.5 ml when using a Varian Techtron spectrophotometer or 0.2 ml at 23° C. when performed with microplates (Munc Immuno Plate II F) using a Kinetic Microplate Reader (Molecular Devices Corp.). Activity was measured by following the increase in absorbance at 405 nm, due to the release of 4-nitroaniline, E405 =10,600M^-1 cm^-1 [14 ]. Molar concentration of thermolysin was estimated using A280 1% =17.65 [15] and molecular mass of 34,600 Da; molar concentration of bovine kidney neutral endopeptidase by protein determination and molecular mass of 90 kDa, deduced from SDS PAGE. Both endopeptidase 24.11 from bovine kidney and thermolysin cleave the Ala-Leu bond of the compound at a very fast rate (Table 3). […]
as §1

Row | Protein | Km [1] [µM] | kcat [1] [s⁻¹] | kcat/Km [1] [M^-1 s^-1 × 10^-6] | Km [2] [µM] | kcat [2] [s⁻¹]
1 | Thermolysin (Bacillus thermoproteolyticus) (protein) ITGTSTVGVGRGVLGDQKNINTTYSTYYYLQDNTRGNGIFTYDAKYRTTLPGSLWADADNQFFASYDAPAVDAHYYAGVTYDYYKNVHNRLSYDGNNAAIRSSVHYSQGYNNAFWNGSQMVYGDGDGQTFIPLSGGIDVVAHELTHAVTDYTAGLIYQNESGAINEAISDIFGTLVEFYANKNPDWEIGEDVYTPGISGDSLRSMSDPAKYGDPDHYSKRYTGTQDNGGVHINSGIINKAAYLISQGGTHYGVSVVGIGRDKLGKIFYRALTQYLTPTSNFSQLRAAAVQSATDLYGSTSQEVASVKQAFDAVGVK | 4200 | 1200 | 0.29 |  | 
2 | bovine kidney neutral endopeptidase 24.11 (Bos taurus) (protein, Endopeptidase 24.11 from bovine kidney was purified by Triton X-100 extraction; from tissue; host or cells: bovine kidney) MGRSESQMDITDINTPKPKKKQRWTPLEISLSVLVLLLTIIAVTMIALYATYDDGICKSSECIKSAARLIQNMDATVEPCTDFFKYACGGWLKRNVIPETSSRYSNFDILRDELEVVLKDVLQEPKTEDIIAVQKAKMLYRSCINETAIESRGGEPLLRLLPDIYDWPVALENWEQKYGSSWTAEKSIAQLNSKYGKKVIINFFVGTDDKNSTNHIIHIDQPQLGLPSRDYYECTAAYKEACTAYVDFMISVAKLIRQERGLPIDENQLSLEMNKVMDLEKEIANATTKSEDRNDPMLLYNKMTLAEVQNKFSLEFSGKPFSWSNFTNEIMSTVNINIPHEEEVIVYAPEYLTNLKLILAKYSARDLQNLMSWRFIMDLVSSLSRNYKESRNAFRKALYGTTSETATWRRCANYVNGNMENAVGRLYVEAAFPGDSKHVVEDLIAQIRAVFIQTLDDLTWMDAETKKKAEEKALAIKERIGYPDDIISNDDKLNKEYLELSYQEEEYFENIIQNLKFGQNRQLKKLREKVDKDEWISGAAVVNAFYSSGRNQIVFPAGILQPPFFSAQQPKSLNYGGIGMVIGHEITHGFDDNGRNFNKDGDLVDWWTQQSANNFKDLSQCMVYQYGNFSWDLANGQHLNGINTLGENIADNGGIGQAYRAYQNYVKKHGEEKLLPGLDLNHRQLFFLNFAQVWCGTYRTEYALNSIKTDVHSPGNFRIIGTLQNSPQFSEAFHCRKNSYMNPEKKCRVW |  |  |  | 150 | 120

From patent publication US5143839A, “Assay of endopeptidases and novel purified bacterial enzyme” (Ramot Ltd., priority 1989, dated 1992)
